We go through 3 substances from US20120157824.

Series [1] relates to oligopeptide linker containing the urokinase-specific cleavage sequence SGRSA (SEQ ID NO: 2).
Series [2] deals with T1, cleavage sequence for urokinase DGAGSGRSAGAGD (SEQ ID NO: 66) linking porphyrin-labeled stealth coated Fe/Fe3O4 nanoparticles.
T1 sequence: DGAGSGRSAGAGD

The subject of series [3] is T2, cleavage sequence DGGGSGRSAGGGD (SEQ ID NO: 65) coupled to TCPP and to stealth-coated Fe/Fe3O4 nanoparticles.
T2 sequence: DGGGSGRSAGGGD

The test system of series [4] is T3, GAGSGRSAGA oligopeptide sequence (SEQ ID NO: 66, deleted at the N-terminus by 1 residue and the C-terminus by 2 residues) linking Fe/Fe3O4/ASOX/stealth-nanoparticles into oligomers.
T3 sequence: GAGSGRSAGA

Series [5] has as its system T4, GAGSGRSAGAG linkage (SEQ ID NO: 66, deleted by 1 residue at each of the N-terminus and C-terminus) between nanoparticle and non-metalated TCPP.
T4 sequence: GAGSGRSAGAG

The test system of series [6] is urokinase consensus sequence linker DGGSGRSAGGGC (SEQ ID NO: 68) linking Fe/Fe3O4 nanoplatforms.

urokinase in rat urine, sequence (chain, as listed by the source): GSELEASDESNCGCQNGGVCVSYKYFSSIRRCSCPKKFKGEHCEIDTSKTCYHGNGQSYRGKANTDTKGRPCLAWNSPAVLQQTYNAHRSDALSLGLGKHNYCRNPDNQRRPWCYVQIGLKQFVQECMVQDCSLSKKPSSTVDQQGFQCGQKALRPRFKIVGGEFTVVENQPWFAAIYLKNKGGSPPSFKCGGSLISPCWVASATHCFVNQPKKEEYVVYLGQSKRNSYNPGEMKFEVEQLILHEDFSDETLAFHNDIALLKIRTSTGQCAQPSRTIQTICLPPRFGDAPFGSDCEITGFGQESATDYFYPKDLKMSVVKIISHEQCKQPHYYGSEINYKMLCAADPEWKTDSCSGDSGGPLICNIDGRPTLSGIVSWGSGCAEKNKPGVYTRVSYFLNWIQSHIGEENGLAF
urokinase in canine urine, sequence (chain, as listed by the source): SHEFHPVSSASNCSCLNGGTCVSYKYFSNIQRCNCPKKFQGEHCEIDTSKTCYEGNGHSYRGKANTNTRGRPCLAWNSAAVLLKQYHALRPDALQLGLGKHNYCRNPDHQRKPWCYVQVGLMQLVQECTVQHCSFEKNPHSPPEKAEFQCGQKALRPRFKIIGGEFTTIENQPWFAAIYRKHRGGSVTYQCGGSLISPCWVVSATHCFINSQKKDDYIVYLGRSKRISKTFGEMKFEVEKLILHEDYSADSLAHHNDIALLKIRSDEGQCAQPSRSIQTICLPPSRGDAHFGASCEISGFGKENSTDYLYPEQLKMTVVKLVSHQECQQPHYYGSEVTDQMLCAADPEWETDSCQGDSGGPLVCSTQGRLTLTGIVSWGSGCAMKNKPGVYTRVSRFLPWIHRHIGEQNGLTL

For the substance “urokinase (Sigma Aldrich, St. Louis, Mo.)”, in series [1], the “T1 relaxivity r1 after protease cleavage of the linker” value was “r1 increased slightly to 180±20 mM s^-1” and the “T2 relaxivity r2 after protease cleavage of the linker” value was “r2 increased to -2,350±250 mM s^-1”. Moreover, in series [2], the r2/r1 (MRI relaxivity ratio) at t = 0 min is -27.6, the r2/r1 (MRI relaxivity ratio) at t = 5 min was -21.9, the r2/r1 (MRI relaxivity ratio) at t = 10 min is -19.6 and the r2/r1 (MRI relaxivity ratio) at t = 15 min is -16.8. In series [2], the r2/r1 (MRI relaxivity ratio) at t = 20 min was -16.5, the r2/r1 (MRI relaxivity ratio) at t = 25 min is -15.8, the r2/r1 (MRI relaxivity ratio) at t = 30 min is -15.3 and the r2/r1 (MRI relaxivity ratio) at t = 40 min is -14.8. In addition, in series [2], the r2/r1 (MRI relaxivity ratio) at t = 50 min is -14.1 and the r2/r1 (MRI relaxivity ratio) at t = 60 min was -13.5. In series [3], the “optical extinction (absorption + scattering) over 40 min, urokinase 1×10^-10 M” value is “the observable change of the extinction is caused by the change in scattering once the oligopeptide-tether is cleaved by the enzyme” and the “signal intensity at 440 nm divided by signal intensity at 600 nm vs. time” value was “a linear slope has been obtained”. Also, in series [4], the “T1 of H2O 10 minutes after adding 1×10^-14 mol urokinase per ml (3.004 seconds before)” value is “After 10 minutes, T1 had decreased to 2.003 seconds” and the “T2 of H2O 10 minutes after adding 1×10^-14 mol urokinase per ml (0.07579 seconds before)” value is recorded as “T2 had increased to 0.1334 seconds”. Besides, in series [5], the fluorescence lifetime τ1, Fe/Fe3O4-linkage-TCPP plus urokinase (1×10^-7 M) is 1.39 ns; the fluorescence lifetime τ1, Fe/Fe3O4/ASOX/Au-linkage-TCPP plus urokinase (1×10^-7 M) was 1.47 ns; the fluorescence lifetime τ2, Fe/Fe3O4-linkage-TCPP plus urokinase (1×10^-7 M) was 30 ns; the fluorescence lifetime τ2, Fe/Fe3O4/ASOX/Au-linkage-TCPP plus urokinase (1×10^-7 M) was 29.3 ns. In series [5], the “overall fluorescence enhancement, 10 min. after urokinase was added” value is listed as “The overall fluorescence enhancement of this system was approx. 75 (10 min. after urokinase was added)”; the relative contribution f1, Fe/Fe3O4-linkage-TCPP plus urokinase (1×10^-7 M) was 78; the relative contribution f1, Fe/Fe3O4/ASOX/Au-linkage-TCPP plus urokinase (1×10^-7 M) came to 80; the relative contribution f2, Fe/Fe3O4-linkage-TCPP plus urokinase (1×10^-7 M) is 22. Also, in series [5], the relative contribution f2, Fe/Fe3O4/ASOX/Au-linkage-TCPP plus urokinase (1×10^-7 M) is 20.
On to urokinase in rat urine, for which, in series [1], the “luminescence of TCPP released from the nanoplatform, 36 day urine” value is listed as “the luminescence from TCPP increased steadily over time for the 36 day urine” and the “luminescence of TCPP released from the nanoplatform, control (5 day urine)” value is recorded as “The control (5 day urine) did not demonstrate a significant increase in luminescence”. The “UV/Vis backscattering spectrum of the nanoparticle-dimer over 120 minutes, rat urine (estimated urokinase 5×10^-10 M)” value in series [6] is “The change in the optical properties is clearly discernible upon the cleavage of the oligopeptides-linker by urokinase”.
urokinase in canine urine: in series [1], the “fluorescence enhancement over time, Sample B (dog undergoing chemotherapy)” value is given as “had a detectable enhancement in fluorescence than the control (Sample A), but was still much lower than Sample C” and the “fluorescence enhancement over time, Sample C (dog just diagnosed with cancer)” value was “showed a rapid increase in fluorescence”.
